These results are taken from patent publication US20260125451A1 (JIANGSU HENGRUI PHARMACEUTICALS, published 2026).

The target of assay [1] is T1, APRIL (Acro Biosystems, Cat: APL-H52D1) (UniProt O75888 115-250, limits assumed).
T1 construct: also called ARPIL; A proliferation-inducing ligand
T1 sequence (looked up): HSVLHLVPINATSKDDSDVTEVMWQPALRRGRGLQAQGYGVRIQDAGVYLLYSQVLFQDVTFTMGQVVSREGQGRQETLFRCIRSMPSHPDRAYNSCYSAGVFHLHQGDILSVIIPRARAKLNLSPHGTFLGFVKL
In words: ELISA, APRIL coated, anti-human Fc-HRP, OD450. The procedure: The capabilities of fusion proteins B606401, B637302, B746201, and B805201 to bind to BAFF and APRIL were assessed by ELISA as follows:
(§1) BAFF (PeproTech, Cat: 310-13) or ARPIL (Acro Biosystems, Cat: APL-H52D1) was diluted to 1 μg/mL with PBS, and a 96-well plate was coated with the dilution overnight at 4° C. The plate was washed with PBST and blocked with Blocking Buffer (PBST containing 1% BSA) at 37° C. for 1 h. The plate was tapped. The test antibodies were diluted with Blocking Buffer. Incubation was performed at 37° C. for 1.5 h. The plate was washed with PBST. An HRP-mouse anti-human Fc antibody (GenScript, Cat: A01854-200) was diluted with Blocking Buffer. Incubation was performed at 37° C. for 40 min. The plate was washed with PBST. 100 μL of TMB substrate solution (Biopanda, Cat: TMB-S-003) was added, and color development was performed at 37° C. for 3 min. 100 μL of ELISA stop solution (Solarbio, Cat: C1058) was added. OD450 was measured.
The EC₅₀ value for the capability of B637302 to bind to APRIL decreased to 1/7 to ⅙ of that of telitacicept.

Assay [2] has as its target T1, APRIL (Acro Biosystems, Cat: APL-H52D1). As to the kind of experiment: ELISA, APRIL coated, anti-human Fc-HRP, OD450. The procedure: (§2) The capabilities of TACI-BCMA fusion proteins (B575701, B575702, B575703, and B575704) to bind to BAFF and APRIL were assessed by ELISA as follows:
as §1, with “96-well plate (Costar, Cat: 3590) was coated” for “96-well plate was coated”
This is another data set of the same source.

Assay [3] concerns the target T2, recombinant human ARPIL (R&D cat: 5860-AP-010/CF) (human, UniProt O75888 105-250, limits assumed).
T2 sequence (looked up): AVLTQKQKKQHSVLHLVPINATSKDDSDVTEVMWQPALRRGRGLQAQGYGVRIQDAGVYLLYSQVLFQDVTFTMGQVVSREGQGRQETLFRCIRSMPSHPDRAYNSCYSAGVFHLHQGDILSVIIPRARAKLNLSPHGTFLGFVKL
As to the kind of experiment: cell-based or functional assay.

The target in assay [4] is T1, APRIL (Acro Biosystems, Cat: APL-H52D1). As to the kind of experiment: ELISA, APRIL coated, anti-human Fc-HRP, OD450. The procedure:
The capabilities of B613301, B613302, and B613303, which are fusion proteins of anifrolumab and TACI-BCMA, to bind to BAFF and APRIL were assessed by ELISA as follows:
as §1, with “96-well plate (Costar, Cat: 3590) was coated” for “96-well plate was coated”
The source holds these as a separate data set.

Assay [5] addresses recombinant human BAFF (R&D cat: 7537-BF-025/CF) (human, UniProt Q9Y275 134-285, limits assumed). As to the kind of experiment: cell-based or functional assay.
For assay [6], the target named is T3, BAFF (PeproTech, Cat: 310-13) (UniProt Q9Y275 134-285). In words: ELISA, BAFF coated, anti-human Fc-HRP, OD450. The procedure:
as §2
as §1, with “96-well plate (Costar, Cat: 3590) was coated” for “96-well plate was coated”

Assay [7] addresses T3, BAFF (PeproTech, Cat: 310-13). In words: ELISA, BAFF coated, anti-human Fc-HRP.

Read-outs that look alike come from different tables or passages of the source.

recombinant human BAFF (R&D cat: 7537-BF-025/CF), sequence (Q9Y275 134-285 limits assumed): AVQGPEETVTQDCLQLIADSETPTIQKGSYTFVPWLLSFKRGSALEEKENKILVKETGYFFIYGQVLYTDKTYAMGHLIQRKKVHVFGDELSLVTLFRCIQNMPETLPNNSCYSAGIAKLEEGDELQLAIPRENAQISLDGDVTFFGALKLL
T3 sequence (Q9Y275 134-285 limits assumed): as above

B1: Telitacicept (RCT-18) (Fc fusion)
chain: SRVDQEERFPQGLWTGVAMRSCPEEQYWDPLLGTCMSCKTICNHQSQRTCAAFCRSLSCRKEQGKFYDHLLRDCISCASICGQHPKQCAYFCENKLRSPVNLPPELDKTHTCPPCPAPEAEGAPSVFLFPPKPKDTLMISRTPEVTCVVVDVSHEDPEVKFNWYVDGVEVHNAKTKPREEQYNSTYRVVSVLTVLHQDWLNGKEYKCKVSNKALPSSIEKTISKAKGQPREPQVYTLPPSRDELTKNQVSLTCLVKGFYPSDIAVEWESNGQPENNYKTTPPVLDSDGSFFLYSKLTVDKSRWQQGNVFSCSVMHEALHNHYTQKSLSLSPGK
notes: Positive control, TACI-Fc
With B1, the Emax in assay [1] amounted to 2.98 nM. In assay [2], the Emax worked out at 2.62 nM. Besides, in assay [3], the “Flow cytometry proliferating B cell proportion (%), mean, APRIL-induced, drug at 4.12 nM” value came out at 48.1%; the “Flow cytometry proliferating B cell proportion (%), mean, APRIL-induced, drug at 12.35 nM” value is 49.2%; the “Flow cytometry proliferating B cell proportion (%), mean, APRIL-induced, drug at 37.04 nM” value turned out to be 50.1%; the “Flow cytometry proliferating B cell proportion (%), mean, APRIL-induced, drug at 111.11 nM” value stood at 50.3%. In addition, in assay [3], the “Flow cytometry proliferating B cell proportion (%), mean, APRIL-induced, drug at 333.33 nM” value is 49.1% and the “Flow cytometry proliferating B cell proportion (%), mean, APRIL-induced, drug at 1000.00 nM” value worked out at 46.3%. Besides, in assay [4], the Emax is 2.5 nM. Also, in assay [5], the “Flow cytometry proliferating B cell proportion (%), mean, BAFF-induced, drug at 10 nM” value was 36%; the “Flow cytometry proliferating B cell proportion (%), mean, BAFF-induced, drug at 100 nM” value was 30.7%; the “Flow cytometry proliferating B cell proportion (%), mean, BAFF-induced, drug at 1000 nM” value stood at 24.3%. The same molecule registered an Emax in assay [6] of 2.28 nM.

B2: B575704 (Fc fusion)
chain: MLQMAGQCSQNEYFDSLLHACIPCQLRCSSNTPPLTCQRYCNASVTNSVKGTNASRVDQEERFPQGLWTGVAMRSCPEEQYWDPLLGTCMSCKTICNHQSQRTCAAFCRSLSCRKEQGKFYDHLLRDCISCASICGQHPKQCAYFCENKLRSPVNLPPELDKTHTCPPCPAPEAEGAPSVFLFPPKPKDTLMISRTPEVTCVVVDVSHEDPEVKFNWYVDGVEVHNAKTKPREEQYNSTYRVVSVLTVLHQDWLNGKEYKCKVSNKALPSSIEKTISKAKGQPREPQVYTLPPSRDELTKNQVSLTCLVKGFYPSDIAVEWESNGQPENNYKTTPPVLDSDGSFFLYSKLTVDKSRWQQGNVFSCSVMHEALHNHYTQKSLSLSPGK
notes: TACI-BCMA fusion protein; also called BCMA-ECD-TACI-T2-Fc
Consider B2, for which the “EC50 relative to that of telitacicept” value in assay [7] was 0.25 ratio. For the same molecule, the Emax worked out at 2.68 nM in assay [2] and 2.29 nM in assay [6].

B3: B575702 (Fc fusion)
chain: MLQMAGQCSQNEYFDSLLHACIPCQLRCSSNTPPLTCQRYCNASVTNSVKGTNALSCRKEQGKFYDHLLRDCISCASICGQHPKQCAYFCENKLRSPGDKTHTCPPCPAPEAEGAPSVFLFPPKPKDTLMISRTPEVTCVVVDVSHEDPEVKFNWYVDGVEVHNAKTKPREEQYNSTYRVVSVLTVLHQDWLNGKEYKCKVSNKALPSSIEKTISKAKGQPREPQVYTLPPSRDELTKNQVSLTCLVKGFYPSDIAVEWESNGQPENNYKTTPPVLDSDGSFFLYSKLTVDKSRWQQGNVFSCSVMHEALHNHYTQKSLSLSPGK
notes: TACI-BCMA fusion protein; also called BCMA-ECD-TACI-d2-Fc
Take B3: the “EC50 relative to that of telitacicept” value in assay [7] turned out to be 0.25 ratio. The Emax in assay [2] is 2.64 nM; in assay [6], 2.24 nM.

B4: B613301 (other)
heavy: EVQLVQSGAEVKKPGESLKISCKGSGYIFTNYWIAWVRQMPGKGLESMGIIYPGDSDIRYSPSFQGQVTISADKSITTAYLQWSSLKASDTAMYYCARHDIEGFDYWGRGTLVTVSSASTKGPSVFPLAPSSKSTSGGTAALGCLVKDYFPEPVTVSWNSGALTSGVHTFPAVLQSSGLYSLSSVVTVPSSSLGTQTYICNVNHKPSNTKVDKRVEPKSCDKTHTCPPCPAPEFEGGPSVFLFPPKPKDTLMISRTPEVTCVVVDVSHEDPEVKFNWYVDGVEVHNAKTKPREEQYNSTYRVVSVLTVLHQDWLNGKEYKCKVSNKALPASIEKTISKAKGQPREPQVYTLPPSRDELTKNQVSLTCLVKGFYPSDIAVEWESNGQPENNYKTTPPVLDSDGSFFLYSKLTVDKSRWQQGNVFSCSVMHEALHNHYTQKSLSLSPGK
light: EIVLTQSPGTLSLSPGERATLSCRASQSVSSSFFAWYQQKPGQAPRLLIYGASSRATGIPDRLSGSGSGTDFTLTITRLEPEDFAVYYCQQYDSSAITFGQGTRLEIKRTVAAPSVFIFPPSDEQLKSGTASVVCLLNNFYPREAKVQWKVDNALQSGNSQESVTEQDSKDSTYSLSSTLTLSKADYEKHKVYACEVTHQGLSSPVTKSFNRGECGGGGSGGGGSLSCRKEQGKFYDHLLRDCISCASICGQHPKQCAYFCENKLRSPGMLQMAGQCSQNEYFDSLLHACIPCQLRCSSNTPPLTCQRYCNASVTNSVKGTNA
notes: Fusion protein of anifrolumab and TACI-BCMA
B4 yielded an Emax in assay [4] of 2.49 nM.

B5: B613302 (other)
heavy: B4 heavy
light: EIVLTQSPGTLSLSPGERATLSCRASQSVSSSFFAWYQQKPGQAPRLLIYGASSRATGIPDRLSGSGSGTDFTLTITRLEPEDFAVYYCQQYDSSAITFGQGTRLEIKRTVAAPSVFIFPPSDEQLKSGTASVVCLLNNFYPREAKVQWKVDNALQSGNSQESVTEQDSKDSTYSLSSTLTLSKADYEKHKVYACEVTHQGLSSPVTKSFNRGECGGGGSGGGGSMLQMAGQCSQNEYFDSLLHACIPCQLRCSSNTPPLTCQRYCNASVTNSVKGTNALSCRKEQGKFYDHLLRDCISCASICGQHPKQCAYFCENKLRSPG
notes: as for B4
The molecule B5 returned an Emax in assay [4] of 2.52 nM.

B6: B575701 (Fc fusion)
chain: LSCRKEQGKFYDHLLRDCISCASICGQHPKQCAYFCENKLRSPGMLQMAGQCSQNEYFDSLLHACIPCQLRCSSNTPPLTCQRYCNASVTNSVKGTNADKTHTCPPCPAPEAEGAPSVFLFPPKPKDTLMISRTPEVTCVVVDVSHEDPEVKFNWYVDGVEVHNAKTKPREEQYNSTYRVVSVLTVLHQDWLNGKEYKCKVSNKALPSSIEKTISKAKGQPREPQVYTLPPSRDELTKNQVSLTCLVKGFYPSDIAVEWESNGQPENNYKTTPPVLDSDGSFFLYSKLTVDKSRWQQGNVFSCSVMHEALHNHYTQKSLSLSPGK
notes: TACI-BCMA fusion protein; also called TACI-d2-BCMA-ECD-Fc
B6: in assay [7], the “EC50 relative to that of telitacicept” value worked out at 0.5 ratio. For the same molecule, the Emax in assay [2] was determined as 2.69 nM; in assay [6], 2.31 nM.

B7: B575703 (Fc fusion)
chain: SRVDQEERFPQGLWTGVAMRSCPEEQYWDPLLGTCMSCKTICNHQSQRTCAAFCRSLSCRKEQGKFYDHLLRDCISCASICGQHPKQCAYFCENKLRSPVNLPPELMLQMAGQCSQNEYFDSLLHACIPCQLRCSSNTPPLTCQRYCNASVTNSVKGTNADKTHTCPPCPAPEAEGAPSVFLFPPKPKDTLMISRTPEVTCVVVDVSHEDPEVKFNWYVDGVEVHNAKTKPREEQYNSTYRVVSVLTVLHQDWLNGKEYKCKVSNKALPSSIEKTISKAKGQPREPQVYTLPPSRDELTKNQVSLTCLVKGFYPSDIAVEWESNGQPENNYKTTPPVLDSDGSFFLYSKLTVDKSRWQQGNVFSCSVMHEALHNHYTQKSLSLSPGK
notes: TACI-BCMA fusion protein; also called TACI-T2-BCMA-ECD-Fc
As to B7, in assay [7], the “EC50 relative to that of telitacicept” value was determined as 0.5 ratio. For the same molecule, the values for the Emax in assay [2] and in assay [6] were 2.78 nM and 2.43 nM, respectively.
